To fix the notation:
B1: untagged full-length Mex67p (natural protein)
chain: MSGFHNVGNINMMAQQQMQQNRIKISVRNWQNATMNDLINFISRNARVAVYDAHVEGPLVIGYVNSKAEAESLMKWNGVRFAGSNLKFELLDNNGASAGTSDTISFLRGVLLKRYDPQTKLLNLGALHSDPELIQKGVFSSISTQSKMFPAMMKLASTEKSLIVESVNLADNQLKDISAISTLAQTFPNLKNLCLANNQIFRFRSLEVWKNKFKDLRELLMTNNPITTDKLYRTEMLRLFPKLVVLDNVIVRDEQKLQTVYSLPMKIQQFFFENDALGQSSTDFATNFLNLWDNNREQLLNLYSPQSQFSVSVDSTIPPSTVTDSDQTPAFGYYMSSSRNISKVSSEKSIQQRLSIGQESINSIFKTLPKTKHHLQEQPNEYSMETISYPQINGFVITLHGFFEETGKPELESNKKTGKNNYQKNRRYNHGYNSTSNNKLSKKSFDRTWVIVPMNNSVIIASDLLTVRAYSTGAWKTASIAIAQPPQQQASVLPQVASMNPNITTPPQPQPSVVPGGMSIPGAPQGAMVMAPTLQLPPDVQSRLNPVQLELLNKLHLETKLNAEYTFMLAEQSNWNYEVAIKGFQSSMNGIPREAFVQF
B2: His6-Mtr2p (natural protein)
chain: MNTNSNTMVMNDANQAQITATFTKKILAHLDDPDSNKLAQFVQLFNPNNCRIIFNATPFAQATVFLQMWQNQVVQTQHALTGVDYHAIPGSGTLICNVNCKVRFDESGRDKMGQDATVPIQPNNTGNRNRPNDMNKPRPLWGPYFGISLQLIIDDRIFRNDFNGVISGFNYNMVYKPEDSLLKI
B3: GST-FG_(Nup159) (domain or fragment)
chain: QSQSSSTFGAPSFGSSAFKIDLPSVSSTSTGVASSEQDATDPASAKPVFGKPAFGAIAKEPSTSEYAFGKPSFGAPSFGSGKSSVESPASGSAFGKPSFGTPSFGSGNSSVEPPASGSAFGKPSFGTPSFGSGNSSAEPPASGSAFGKPSFGTSAFGTASSNETNSGSIFGKAAFGSSSFAPANNELFGSNFTISKPTVDSPKEVDSTSPFPSSGDQSEDESKSDVDSSSTPFGTKPNTSTKPKTNAFDFGSSSFGSGFSKALESVGSDTTFKFGTQASPFSSQLGNKSPFSSFTKDDTENGSLSKGSTSEINDDNEEHESNGPNVSGNDLTDSTVEQTSSTRLPETPSDEDGEVVEEEAQKSPIGKLTETIKKSANIDMAGLKNPVFGNHVKAKSESPFSAFATNITKPSSTTPAFSFGNSTMNKSNTSTVSPMEEADTKETS
B4: GST-GLFG_(Nup116) (domain or fragment)
chain: YQAGRKFGTSQNGTGTTFNNPQGTTNTGFGIMGNNNSTTSATTGGLFGQKPATGMFGTGTGSGGGFGSGATNSTGLFGSSTNLSGNSAFGANKPATSGGLFGNTTNNPTNGTNNTGLFGQQNSNTNGGLFGQQQNSFGANNVSNGGAFGQVNRGAFPQQQTQQGSGGIFGQSNANANGGAFGQQQGTGALFGAKPASGGLFGQSAGSKAFGMNTNPTGTTGGLFGQTNQQQSGGGLFGQQQNSNAGGLFGQNNQSQNQSGLFGQQNSSNAFGQPQQQGGLFGSKPAGGLFGQQQGASTFASGNAQNNSIFGQNNQQQQSTGGLFGQQNNQSQSQPGGLFGQTNQNNNQPFGQNGLQQPQQNNSLFGAKPTGFGNTSLFSNSTTNQSNGISGNNLQQQSGGLFQNKQQPASGGLFGSKPSNTVGGGLFGNNQVANQNNPASTSGGLFGSKPATGSLFGGTNSTAPNASSGGIFGSNNASNTAATTNSTGLFGNKPVGAGASTSAGGLFGNNNNSSLNNSNGSTGLFGSNNTSQSTNAGGLFQNNTSTNTSGGGLFSQPSQSMAQSQNALQQ

The assay “His6-Mtr2p” deals with B2. The experiment in a line: AUC.
In assay [1] the target is B1. The experiment in a line: pull-down.
Assay [2] concerns the target T1, Mex67pΔC1/His6-Mtr2p complex (S. cerevisiae | yeast, UniProt Q99257;P34232).
T1 sequence 1: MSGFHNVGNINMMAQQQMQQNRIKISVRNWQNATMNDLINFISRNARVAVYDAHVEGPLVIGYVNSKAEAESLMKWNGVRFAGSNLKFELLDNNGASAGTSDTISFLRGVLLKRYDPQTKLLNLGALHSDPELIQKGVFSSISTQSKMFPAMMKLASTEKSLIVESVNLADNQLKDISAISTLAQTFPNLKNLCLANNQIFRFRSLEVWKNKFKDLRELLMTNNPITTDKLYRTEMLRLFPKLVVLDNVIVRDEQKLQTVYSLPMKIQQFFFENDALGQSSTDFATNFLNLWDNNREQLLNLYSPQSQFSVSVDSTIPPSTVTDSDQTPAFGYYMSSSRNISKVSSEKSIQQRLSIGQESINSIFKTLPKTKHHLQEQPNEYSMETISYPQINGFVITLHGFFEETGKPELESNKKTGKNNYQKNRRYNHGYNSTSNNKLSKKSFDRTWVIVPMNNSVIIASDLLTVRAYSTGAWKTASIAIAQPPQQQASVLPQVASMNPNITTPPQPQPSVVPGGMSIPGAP
T1 sequence 2: B2 chain
The experiment in a line: pull-down.

In assay [3] the target is T2, Mex67p/His6-Mtr2p complex (S. cerevisiae | yeast, UniProt Q99257;P34232).
T2 sequence 1: B1 chain
T2 sequence 2: B2 chain
The experiment in a line: pull-down.

Turning to B1, in the assay with His6-Mtr2p, the “stoichiometry N” value came out at 1.
Consider B2, for which, in assay [1], the binding result is “binds”.
On to B3, for which the binding result in assay [2] and in assay [3] was “binds” throughout.
On to B4, for which the binding result in assay [2] and in assay [3] was “binds” throughout.

A word on the stoichiometry N: it is a count of units in the complex or per binding partner.

The values above are taken from publication PMC2175290 (The Journal of Cell Biology, 2000).
